Laboratory results from patent US20230109780A1 (XIYUAN ANJIAN MEDICINE SHANGHAI, published 2023).
Where two headings read alike, the source gives them in different places.

T1: human BDNF (human, UniProt P23560 129-247)
T1 construct: Bought protein; also called Brain-Derived Neurotrophic Factor
T1 sequence (looked up): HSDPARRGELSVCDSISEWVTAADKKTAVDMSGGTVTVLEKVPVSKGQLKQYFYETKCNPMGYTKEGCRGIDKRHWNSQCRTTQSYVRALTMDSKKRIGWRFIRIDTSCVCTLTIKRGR

T2: human NT-3 (human, UniProt P20783 139-257)
T2 construct: Bought protein; also called Neurotrophic factor-3
T2 sequence (looked up): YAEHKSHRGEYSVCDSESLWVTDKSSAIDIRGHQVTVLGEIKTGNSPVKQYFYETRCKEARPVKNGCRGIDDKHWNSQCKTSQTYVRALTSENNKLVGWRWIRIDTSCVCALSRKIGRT

T3: human NT-4 (human, UniProt P34130 81-210)
T3 construct: Bought protein; also called Neurotrophic factor-4
T3 sequence (looked up): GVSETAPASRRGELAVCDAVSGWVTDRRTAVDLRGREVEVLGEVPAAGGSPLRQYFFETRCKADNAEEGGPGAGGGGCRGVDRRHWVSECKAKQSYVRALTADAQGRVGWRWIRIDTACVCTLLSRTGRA


Columns and labels:
[1] = target: T4, recombinant human NGF protein (human, UniProt P01138 122-241); assay: cell-based or functional assay
T4 sequence (P01138 122-241 limits assumed): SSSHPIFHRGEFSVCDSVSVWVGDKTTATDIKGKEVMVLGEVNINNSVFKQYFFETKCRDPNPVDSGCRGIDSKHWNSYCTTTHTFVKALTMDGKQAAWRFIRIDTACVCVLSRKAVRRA

[2] = target: T4, recombinant human NGF protein; assay: cell-based or functional assay; remark: listed apart in the source
[3] = target: T4, recombinant human NGF protein; assay: cell-based or functional assay; remark: listed apart in the source
[4] = target: T4, recombinant human NGF protein; assay: ELISA, human NGF coated
Experimental: (§1) The binding capacity of anti-NGF antibodies was investigated by using human NGF as an antigen (Beijing Yiqiao Shenzhou Technology Co., Ltd., 11050-HNAC). Each well of a 96-well microtiter plate was coated with 50 ng of human NGF, after washing and blocking, and then added with serially diluted antibodies, and incubated at room temperature for 1 hour. After washing three times, HRP-conjugated goat anti-mouse antibody (Biolegend, 405306) was added and incubated at room temperature for 1 hour. After washing three times, tetramethylbenzidine (TMB, Biolegend, 421101) was added for color development. 1M HC1 was used to terminate the color development, and the absorbance values were read at 450 nm with a microplate reader.

[5] = target: T4, recombinant human NGF protein; assay: blocking ELISA, human NGF coated, antibody first, then TrkA-Fc
Experimental: If using the coated ligand NGF method for detection, each well of a 96-well microtiter plate was coated with 50 ng of human NGF and washed three times. […] 100 μL of 1 μg/mL TrkA fused to human Fc was added to each well, incubated for 1 hour at room temperature, and washed three times. HRP-conjugated donkey anti-human IgG antibody (Biolegend, 410902) was added and reacted for 1-hour at room temperature. After washing, add TMB to develop color, and read after the termination of development.

human BDNF [6] = target: T1, human BDNF; assay: ELISA, plate coated with human BDNF (50 ng per well), OD450
Experimental: as §1
(§2) Each well of a 96-well microtiter plate was coated with 50 ng of human NGF (Beijing Yiqiao Shenzhou Technology Co., Ltd., 11050-HNAC), human BDNF (Beijing Yiqiao Shenzhou Technology Co., Ltd., 50240-MNAS), human NT-3 (Beijing Yiqiao Shenzhou Technology Co., Ltd., 10286-HNAE), or human NT-4 (Alomone, N-270). The bindings of the murine anti-NGF antibodies to human NGF and three homo-family proteins were detected according to the method described in Example 2.

human NT-3 [7] = target: T2, human NT-3; assay: ELISA, plate coated with human NT-3 (50 ng per well), OD450
Experimental: as §1, §2

human NT-4 [8] = target: T3, human NT-4; assay: ELISA, plate coated with human NT-4 (50 ng per well), OD450
Experimental: as §1, §2

[9] = target: T4, recombinant human NGF protein; assay: BLI (ForteBio Octet Red96), biotin-NGF on SA sensor, antibody in solution
Text: The affinities of the antibodies were detected with Biomolecular Interaction Detection Platform (ForteBio Octet Red96 (PALL)). Biotin-labeled human NGF was immobilized by using SA (Streptavidin) Biosensor (Fortebio, 18-5021), and then conjugated with gradient concentrations of anti-NGF antibodies.

[10] = target: T4, recombinant human NGF protein; assay: blocking ELISA, TrkA-Fc coated, antibody premixed with biotin-labeled human NGF
Experimental: If the method of coated receptor TrkA is used for detection, 50 ng of NGF receptor TrkA protein (fused to human Fc) was coated in each well of a 96-well microtiter plate, washed three times, and then blocked with 3% BSA for 1 hour. […] 100 μl was taken and mixed with an equal volume of 1 μg/mL biotin-labeled human NGF, incubated at room temperature for 0.5 hours, and then added to an ELISA plate which has been washed with blocking solution. Incubated for 1 hour at room temperature and washed three times. Streptavidin-labeled HRP (Biolegend, 405210) was added, and incubated for 0.5 h and then washed three times. The microtiter plate was added with TMB, and read after the color development was terminated.

[11] = target: T4, recombinant human NGF protein; assay: cell-based or functional assay; remark: listed apart in the source
[12] = target: T4, recombinant human NGF protein; assay: ELISA, human NGF coated; remark: listed apart in the source
Experimental: The affinity and specificity of humanized antibody were investigated by using human NGF as an antigen (Beijing Yiqiao Shenzhou Technology Co., Ltd., 11050-HNAC). NGF was diluted with […] coating solution (PBS), and each well of 96-well microtiter plate was coated with 50 ng, after washing and blocking, and then added with serially diluted antibodies, and incubated at room temperature for 1 hour. After washing three times, HRP-conjugated donkey anti-human IgG antibody (Biolegend) was added and reacted at room temperature for 1 hour. After washing three times, tetramethylbenzidine (TMB, Biolegend) was added for color development. 1M HC1 was […] used to terminate the color development, and the absorbance values were read at 450 nm with a microplate reader.

human BDNF [13] = target: T1, human BDNF; assay: ELISA, plate coated with human BDNF (50 ng per well), OD450; remark: listed apart in the source
human NT-3 [14] = target: T2, human NT-3; assay: ELISA, plate coated with human NT-3 (50 ng per well), OD450; remark: listed apart in the source
human NT-4 [15] = target: T3, human NT-4; assay: ELISA, plate coated with human NT-4 (50 ng per well), OD450; remark: listed apart in the source

Row | Binder | IC50, inhibition of NGF-induced proliferation of TF-1 cell [1] [nM] | IC50, inhibition of NGF-induced proliferation of TrkA/Ba/F3 cells [2] [nM] | IC50 (row head prints EC50), inhibition of reporter gene expression in TrkA/NFAT-bla/CHO cells [3] [nM] | EC50 [4] [nM] | IC50 [5] [nM] | binding result (human BDNF [6]) | binding result (human NT-3 [7]) | binding result (human NT-4 [8]) | Kd [9] [nM] | koff [9] [s⁻¹] | kon [9] [M⁻¹ s⁻¹] | IC50 [10] [nM] | IC50, inhibition of NGF-induced proliferation of TF-1 cell [11] [nM] | EC50 [12] [nM] | binding result (human BDNF [13]) | binding result (human NT-3 [14]) | binding result (human NT-4 [15])
1 | murine anti-human NGF monoclonal antibody 43E5 (antibody, V domains shown, Murine monoclonal antibody purified from hybridoma medium by protein G; also called anti-NGF antibody 43E5) VH: QVQLQQSGAELVRPGASVTLSCKASGYTFTDYEMHWVRQTPVHGLEWIGAIDPETGGTAYNQKFKGKATLTADKSSSTAYMELRSLTSEDSAVYYCRRGANLNHYGNDEGSYWGQGTLVTVSA VL: not shown | 0.083 | 0.096 | 0.0532 | 0.082 | 0.967 | no binding (tested: 66.67 nM) | no binding (tested: 66.67 nM) | no binding (tested: 66.67 nM) | < 0.001 | < 1e-07 | 373000 | 0.767 | – | – | – | – | –
2 | human-mouse chimeric antibody 43E5-chi (antibody, V domains shown, the constant regions are not specified) VH: QVQLQQSGAELVRPGASVTLSCKASGYTFTDYEMHWVRQTPVHGLEWIGAIDPETGGTAYNQKFKGKATLTADKSSSTAYMELRSLTSEDSAVYYCRRGANLNHYGNDEGSYWGQGTLVTVSA VL: not shown | – | – | – | – | – | – | – | – | – | – | – | – | 0.255 | 0.104 | no binding (tested: 66.67 nM) | no binding (tested: 66.67 nM) | no binding (tested: 66.67 nM)
3 | humanized anti-NGF antibody 43E5-02 (antibody, V domains shown, Humanized antibody expressed in CHO cells) VH: QVQLVQSGAEVKKPGASVKVSCKASGYTFTDYEMHWVRQAPGQGLEWIGAIDPETGGTAYNQKFKGRATLTADKSISTAYMELSRLRSDDTAVYYCRRGANLNHYGNDEGSYWGQGTLVTVSS VL: DVVMTQSPLSLPVTLGQPASISCKSSQSLLHSVGKTYLNWLQQRPGQSPRRLIYLVSKLDSGVPDRFSGSGSGTDFTLKISRVEAEDVGVYFCWQGTHLPQTFGGGTKVEIK | – | – | – | – | – | – | – | – | – | – | – | – | 0.534 | 0.222 | no binding (tested: 66.67 nM) | no binding (tested: 66.67 nM) | no binding (tested: 66.67 nM)
4 | humanized anti-NGF antibody 43E5-06 (antibody, V domains shown, Humanized antibody expressed in CHO cells) VH: QVQLVQSGAEVKKPGSSVKVSCKASGYTFTDYEMHWVRQAPGQGLEWIGAIDPETGGTAYNQKFKGRATLTADKSTSTAYMELSSLRSEDTAVYYCRRGANLNHYGNDEGSYWGQGTLVTVSS VL: DVVMTQSPLSLPVTLGQPASISCKSSQSLLHSVGKTYLNWLQQRPGQSPRRLIYLVSKLDSGVPDRFSGSGSGTDFTLKISRVEAEDVGVYFCWQGTHLPQTFGGGTKVEIK | – | – | – | – | – | – | – | – | – | – | – | – | 0.568 | 0.192 | no binding (tested: 66.67 nM) | no binding (tested: 66.67 nM) | no binding (tested: 66.67 nM)
5 | humanized anti-NGF antibody 43E5-01 (antibody, V domains shown, Humanized antibody expressed in CHO cells) VH: QVQLVQSGAEVKKPGASVKVSCKASGYTFTDYEMHWVRQAPGQGLEWMGAIDPETGGTAYNQKFKGRVTMTADKSISTAYMELSRLRSDDTAVYYCRRGANLNHYGNDEGSYWGQGTLVTVSS VL: DVVMTQSPLSLPVTLGQPASISCKSSQSLLHSVGKTYLNWLQQRPGQSPRRLIYLVSKLDSGVPDRFSGSGSGTDFTLKISRVEAEDVGVYFCWQGTHLPQTFGGGTKVEIK | – | – | – | – | – | – | – | – | – | – | – | – | 0.582 | 0.229 | no binding (tested: 66.67 nM) | no binding (tested: 66.67 nM) | no binding (tested: 66.67 nM)
6 | humanized anti-NGF antibody 43E5-05 (antibody, V domains shown, Humanized antibody expressed in CHO cells) VH: QVQLVQSGAEVKKPGSSVKVSCKASGYTFTDYEMHWVRQAPGQGLEWMGAIDPETGGTAYNQKFKGRVTITADKSTSTAYMELSSLRSEDTAVYYCRRGANLNHYGNDEGSYWGQGTLVTVSS VL: DVVMTQSPLSLPVTLGQPASISCKSSQSLLHSVGKTYLNWLQQRPGQSPRRLIYLVSKLDSGVPDRFSGSGSGTDFTLKISRVEAEDVGVYFCWQGTHLPQTFGGGTKVEIK | – | – | – | – | – | – | – | – | – | – | – | – | 0.701 | 0.214 | no binding (tested: 66.67 nM) | no binding (tested: 66.67 nM) | no binding (tested: 66.67 nM)
7 | murine anti-human NGF monoclonal antibody 137H8 (antibody, V domains shown, Murine monoclonal antibody purified from hybridoma medium by protein G; also called anti-NGF antibody 137H8) VH: QVQLKESGPGLVAPSQSLSITCTVSGFSLTGYAVNWVRQPPGKGLEWLGMIWFDGSTDYNSALKSRLSISKDNSKSQVFLKMNSLQTDDTARYYCARDYYGSSWYFDVWGAGTTVTVSS VL: DIQMTQTTSSLSASLGDRVTISCRASQDISYYLNWYQQKPDGTVKLLIYYTSRLHSGVPSRFSGSGSGTDYSLTISNLEQEDIATYFCQQGNTLPRTFGGGTKLDIK | 0.123 | 0.083 | 0.0859 | 0.112 | 0.791 | – | – | – | 0.381 | 4.91e-05 | 129000 | 0.738 | – | – | – | – | –
8 | murine anti-human NGF monoclonal antibody 138E12 (antibody, V domains shown, Murine monoclonal antibody purified from hybridoma medium by protein G; also called anti-NGF antibody 138E12) VH: QVQLKESGPGLVAPSQSLSITCTVSGFSLTGYGVNWVRQPPGKGLEWLGMIWFDGSTDYNSALKSRLSISKDNSKSQVFLKMNSLQTDDTARYYCAREGYYYGTTYYFDYWGQGTTLTVSS VL: DIQMTQTTSSLSASLGDRVTISCRASQDISNYLNWYQQKPDGTVKLLIYYTSRLHSGVPSRFSGSGSGTDYSLTISNLEQEDIATYFCQQGNTLPRTFGGGTKLEIK | 0.077 | 0.098 | 0.0442 | 0.1 | 0.865 | no binding (tested: 66.67 nM) | no binding (tested: 66.67 nM) | no binding (tested: 66.67 nM) | < 0.001 | < 1e-07 | 634000 | 0.677 | – | – | – | – | –
